This note sets out measurements from patent publication JP2021054739A, “ビオチン改変二量体とフタロシアニン染料とのコンジュゲート” (dated 2021).

Assay [1] concerns the target T1, CEACAM5 (Recombinant Human CEACAM-5/CD66e Protein) (Homo sapiens, UniProt P06731).
T1 construct: purchased R&D SYSTEMS
T1 sequence (P06731 35-702): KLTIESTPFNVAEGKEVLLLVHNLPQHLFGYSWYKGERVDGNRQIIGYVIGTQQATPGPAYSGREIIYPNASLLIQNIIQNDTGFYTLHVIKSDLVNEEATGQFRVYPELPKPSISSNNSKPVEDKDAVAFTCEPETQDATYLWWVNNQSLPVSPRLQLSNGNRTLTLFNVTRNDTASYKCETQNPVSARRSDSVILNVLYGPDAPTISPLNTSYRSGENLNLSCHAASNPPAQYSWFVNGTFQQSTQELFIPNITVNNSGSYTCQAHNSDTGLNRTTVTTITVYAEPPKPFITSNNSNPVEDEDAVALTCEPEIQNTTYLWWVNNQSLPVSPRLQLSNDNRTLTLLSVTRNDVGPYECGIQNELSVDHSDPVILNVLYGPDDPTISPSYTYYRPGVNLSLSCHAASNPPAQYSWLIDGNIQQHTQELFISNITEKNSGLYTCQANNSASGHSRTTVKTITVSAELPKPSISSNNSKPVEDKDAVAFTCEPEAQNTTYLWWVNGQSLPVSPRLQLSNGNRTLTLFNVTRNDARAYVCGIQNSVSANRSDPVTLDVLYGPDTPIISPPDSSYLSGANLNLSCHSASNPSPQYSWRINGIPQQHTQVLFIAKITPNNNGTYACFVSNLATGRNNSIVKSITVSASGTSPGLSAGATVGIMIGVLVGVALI
As to the kind of experiment: SPR (Biacore T200), CEA-V2122 on immobilised CEACAM5. The class given is binding. For orientation: In SPR one partner is held on a chip, and binding of the other changes the refractive index at the surface.

Assay [2] has as its system CEACAM5 on CEACAM5-positive MKN-45 cells and CEACAM5-negative DLD1 cells [CEACAM5陽性のヒト胃がん由来MKN-45細胞とCEACAM5陰性のヒト結腸がん由来DLD1細胞]. As to the kind of experiment: Cell staining with FITC-labelled CEA-V2122 (In Cell Analyzer 6000). Type of assay: cell-based, human.
[3] abbreviates: SPR, Single-Cycle Kinetics, Bivalent Analyze fit, analyte CEA-V2122 1E-08 M to 6.25E-10 M.

B1: CEA-V2122: anti-CEACAM5 scFv joined by amino acid linker GGGGSGGGG to streptavidin variant V2122 (SEQ ID NO: 3) (protein)
chain: QVKLEQSGAEVVKPGASVKLSCKASGFNIKDSYMHWLRQGPGQRLEWIGWIDPENGDTEYAPKFQGKATFTTDTSANTAYLGLSSLRPEDTAVYYCNEGTPTGPYYFDYWGQGTLVTVSSGGGGSGGGGSGGGGSENVLTQSPSSMSVSVGDRVNIACSASSSVPYMHWLQQKPGKSPKLLIYLTSNLASGVPSRFSGSGSGTDYSLTISSVQPEDAATYYCQQRSSYPLTFGGGTKLEIKGGGGSGGGGAEAGITGTWSDQLGDTFIVTAGADGALTGTYENAVGGAESRYVLTGRYDSAPATDGSGTALGWTVAWKNNSKNAHSATTWSGQYVGGADAKINTQWLLTSGTTNANAWKSTLVGHDTFTKVKPSAASHHHHHH
As to B1, in assay [1] (SPR, Single-Cycle Kinetics, Bivalent Analyze fit, KD = kd1/ka1), the “KD (kd1/ka1)” value came to 1.078E-12. Besides, in assay [1] (setting [3]), the ka1 was determined as 3.208E+5 and the kd1 was 3.461E-7. Also, in assay [1] (from sensorgram and KD value, Fig. 3), the “binding to CEACAM5 (in words)” value is recorded as “強く結合する”.

B2: CEA-V2122-FITC: CEA-V2122 labelled with FITC (Fluorescein Labeling Kit - NH2) (conjugate)
chain: QVKLEQSGAEVVKPGASVKLSCKASGFNIKDSYMHWLRQGPGQRLEWIGWIDPENGDTEYAPKFQGKATFTTDTSANTAYLGLSSLRPEDTAVYYCNEGTPTGPYYFDYWGQGTLVTVSSGGGGSGGGGSGGGGSENVLTQSPSSMSVSVGDRVNIACSASSSVPYMHWLQQKPGKSPKLLIYLTSNLASGVPSRFSGSGSGTDYSLTISSVQPEDAATYYCQQRSSYPLTFGGGTKLEIKGGGGSGGGGAEAGITGTWSDQLGDTFIVTAGADGALTGTYENAVGGAESRYVLTGRYDSAPATDGSGTALGWTVAWKNNSKNAHSATTWSGQYVGGADAKINTQWLLTSGTTNANAWKSTLVGHDTFTKVKPSAASHHHHHH
Consider B2, for which, in assay [2] (20 nM CEA-V2122-FITC, 4℃, 30 min, Fig. 5), the “recognition of CEACAM5 on the cell membrane surface (in words)” value is reported as “細胞膜表面のCEACAM5を特異的に認識する”. In assay [2] (MKN45 cells, time series, Fig. 6), the “behaviour of CEACAM5 after CEA-V2122-FITC binding (in words)” value was “細胞膜表面に滞留する”.
